Reference: patent publication US20210147547A1

Molecular target: PD-L1 (UniProt Q9NZQ7)
Experiment: in vitro Biacore assay (SPR); format not stated

Chain of UniProt Q9NZQ7 (Q9NZQ7 19-238 limits assumed): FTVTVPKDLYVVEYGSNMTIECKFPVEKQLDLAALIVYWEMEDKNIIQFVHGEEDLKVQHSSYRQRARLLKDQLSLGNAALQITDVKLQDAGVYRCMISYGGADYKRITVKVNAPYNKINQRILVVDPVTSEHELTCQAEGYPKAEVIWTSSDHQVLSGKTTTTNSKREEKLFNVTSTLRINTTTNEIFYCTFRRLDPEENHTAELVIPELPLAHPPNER

- Kd: 0.14 nM
Substance: FAZ053 (antibody)
